US20210283212A1 (RA PHARMACEUTICALS, published 2021)
Positions of bridges follow the written chain, without caps; N, C: chain ends. Primed or numbered codes have the meaning given here. mXylyl(3) = bridging moiety between the two residues given in brackets; mXylyl(4) = bridging moiety between residues

Tests used:
Assay in all cases: cell-based or functional assay
human C5 protein [1] = target: T1, human C5 protein (human, UniProt P01031 19-673; P01031 678-1676)
human C5 protein [2] = target: T1, human C5 protein; remark: listed apart in the source
primate C5 protein = primate C5 protein (primate, UniProt A0A2K5U1T1 19-673; A0A2K5U1T1 678-1676, Mature C5 is a disulfide-linked heterodimer of beta and alpha chains; it is glycosylated. The letters do not carry either feature.)
Chain of primate C5 protein (beta, as listed by the source limits assumed, chain 1 of 2): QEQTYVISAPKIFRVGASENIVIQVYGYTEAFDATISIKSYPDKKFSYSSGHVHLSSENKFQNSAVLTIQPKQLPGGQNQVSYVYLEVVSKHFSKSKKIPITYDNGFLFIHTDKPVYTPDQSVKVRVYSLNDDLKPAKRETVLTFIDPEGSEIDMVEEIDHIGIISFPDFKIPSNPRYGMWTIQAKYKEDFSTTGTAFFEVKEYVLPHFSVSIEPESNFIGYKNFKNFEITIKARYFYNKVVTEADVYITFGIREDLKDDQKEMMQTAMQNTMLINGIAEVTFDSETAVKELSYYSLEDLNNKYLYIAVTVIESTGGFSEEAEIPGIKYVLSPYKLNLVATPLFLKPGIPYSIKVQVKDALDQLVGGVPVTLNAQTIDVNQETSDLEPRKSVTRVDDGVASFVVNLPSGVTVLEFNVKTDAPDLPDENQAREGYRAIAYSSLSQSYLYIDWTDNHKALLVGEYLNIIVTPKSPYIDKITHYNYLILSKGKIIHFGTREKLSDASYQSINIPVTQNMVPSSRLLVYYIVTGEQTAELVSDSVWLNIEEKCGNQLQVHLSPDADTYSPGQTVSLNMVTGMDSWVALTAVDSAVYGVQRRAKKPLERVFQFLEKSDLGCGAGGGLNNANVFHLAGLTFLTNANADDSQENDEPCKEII
Chain of primate C5 protein (alpha, as listed by the source limits assumed, chain 2 of 2): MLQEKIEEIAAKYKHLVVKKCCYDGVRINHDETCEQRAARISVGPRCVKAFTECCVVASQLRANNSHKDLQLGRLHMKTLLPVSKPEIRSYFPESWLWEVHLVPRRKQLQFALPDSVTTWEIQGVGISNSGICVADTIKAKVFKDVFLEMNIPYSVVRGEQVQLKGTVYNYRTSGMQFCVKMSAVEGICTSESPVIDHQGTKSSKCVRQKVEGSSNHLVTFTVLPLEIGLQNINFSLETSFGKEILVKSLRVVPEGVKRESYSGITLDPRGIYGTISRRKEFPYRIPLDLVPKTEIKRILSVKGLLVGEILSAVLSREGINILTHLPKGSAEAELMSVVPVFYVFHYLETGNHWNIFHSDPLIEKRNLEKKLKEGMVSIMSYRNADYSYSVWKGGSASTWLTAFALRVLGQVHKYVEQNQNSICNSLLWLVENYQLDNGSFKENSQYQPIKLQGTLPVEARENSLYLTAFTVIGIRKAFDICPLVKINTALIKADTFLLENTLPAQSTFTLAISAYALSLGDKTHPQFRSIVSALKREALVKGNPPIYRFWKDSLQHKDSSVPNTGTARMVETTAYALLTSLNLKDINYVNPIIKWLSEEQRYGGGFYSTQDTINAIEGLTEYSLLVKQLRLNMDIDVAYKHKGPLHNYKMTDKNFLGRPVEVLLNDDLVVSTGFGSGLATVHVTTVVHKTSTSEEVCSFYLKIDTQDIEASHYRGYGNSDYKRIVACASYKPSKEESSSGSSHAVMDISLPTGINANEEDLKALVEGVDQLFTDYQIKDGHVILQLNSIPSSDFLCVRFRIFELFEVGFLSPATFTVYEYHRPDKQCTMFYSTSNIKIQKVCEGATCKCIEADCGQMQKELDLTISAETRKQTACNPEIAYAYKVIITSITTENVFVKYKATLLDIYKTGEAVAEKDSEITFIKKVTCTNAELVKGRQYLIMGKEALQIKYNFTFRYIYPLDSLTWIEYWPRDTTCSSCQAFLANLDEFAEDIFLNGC

human C5 protein [3] = target: T1, human C5 protein; remark: listed apart in the source

Binder	Avg. IC50 (nM), human hemolysis assay (human C5 protein [1]) [nM]	Avg. IC50, human hemolysis assay (human C5 protein [2]) [nM]	IC50, hemolysis assay with 1% cynomolgus monkey serum (primate C5 protein) [nM]	IC50, alternative pathway of complement activation (WIESLAB kit, serum samples) (human C5 protein [3]) [nM]	IC50, formation of the MAC (MAC EIA on human RBC hemolysis supernatant) (human C5 protein [3]) [nM]
Ac-CVERFCWEF-NH2 (linker 1-6 via mXylyl(3)) [R3125]	> 100000	> 100000			
Ac-CVERFCDVYWEF-NH2 (linker 1-6 via mXylyl(4)) [R3048]	19.3	19.3			
KVERFDDGYWEYPGK ([cyclo(1,6)]Ac-K-V-E-R-F-D-(N-Me)D-Tbg-Y-azaTrp-E-Y-P-Chg-(Lys-C16)) [R3183]			4.2	12.5	6.9
